Where no end group is shown, it is not given here.
T1: MAPT(2-24) (human, biotinylated)
T1 construct: also called Tau fragment 2-24
T1 peptide: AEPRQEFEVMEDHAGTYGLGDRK

T2: MAPT(10-24) (human, also: biotinylated, site not given here)
T2 construct: also called Tau fragment 10-24
T2 peptide: VMEDHAGTYGLGDRK

T3: MAPT(2-34) (human, biotinylated)
T3 construct: also called Tau fragment 2-34
T3 peptide: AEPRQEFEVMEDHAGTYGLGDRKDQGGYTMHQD


How the values were obtained:
[1] = target: T1, MAPT(2-24); experiment: ELISA, biotinylated peptide on Neutravidin plate, IgG titrated, A450 nm
Method: (§1) Following a comparison of 37D3-H9 binding to biotinylated Tau monomer and biotinylated peptide (MAPT_10-24), binding of 37D3-H9 to additional biotinylated peptides was also assessed. Nunc maxisorp 96-well microplates were coated at 4° C. for >12 hours with Neutravidin diluted to 2 μg/ml in 50 mM Sodium Carbonate Buffer, pH 9.6. All subsequent incubations were performed at room temperature. After coating, plates were blocked with Superblock™ (PBS) Blocking Buffer (Thermo Fisher Scientific) for two hours then washed thoroughly with PBS, 0.05% Polysorbate 20. Wells were then exposed to biotinylated Tau peptides (Table 20) or Avi-tag biotinylated Tau monomer at 1 μg/ml for one hour and washed as previously. Peptides were synthesized using standard solid-phase Fmoc chemistry (see, e.g., Fmoc solid phase peptide synthesis: A practical approach; Chan, W. C., White, P. D., Eds.; Oxford University Press: New York, 2000). Antibodies 37D3-H9 mIgG2a and hu37D3-H9.v5 hIgG1, serially diluted from 500 nM to 50 pM in 90% Superblock™ (PBS) Blocking Buffer, were allowed to bind biotinylated-Tau coated wells for 90 minutes. Wells were washed as previously and bound antibody detected with peroxidase-conjugated secondary antibody (Invitrogen/Life Technologies) diluted 1/1000 in Superblock™ Blocking Buffer (Rabbit anti-Mouse IgG or Goat Anti-Human IgG (H+L) respectively). After twenty minutes wells were washed as previously and signal developed with TMB Microwell 2-Component Substrate (KPL). Reactions were stopped by addition of 1M Phosphoric Acid and absorbance at 450 nm was measured with a SpectraMax M2 platereader.

[2] = target: T2, MAPT(10-24); experiment: as above
Method: as §1

[3] = target: T3, MAPT(2-34); experiment: as above
Method: as §1

[4] = target: T4, recombinant human Tau monomer, 2N4R isoform (amino acids 2-441) (human, UniProt P10636-8 2-441); experiment: SPR, hIgG captured, Tau monomer analyte, 1:1 fit
T4 construct: range 2-441; N-terminal His-tag removed with TEV protease; also called monomeric Tau
Method: Affinity of selected antibodies was assessed at 25° C. using a Biacore T200 instrument, the GE Biacore human IgG capture kit and a CM5 Series S chip. The hIgG were diluted to 0.25 μg/ml in 10 mM HEPES pH7.4, 150 mM NaCl, 0.05% Tween 20 (running buffer, HBSP) and captured at a flow rate of 10 μl/min for 150 seconds. Kinetic data was collected for Human Tau monomer injected at concentrations of 0, 0.4, 1.2, 3.7, 11, 11, 33 and 100 nM in HBSP, using a flow rate of 30 μl/min, a 300 second association phase and a 600 second dissociation phase. Between cycles the surface was regenerated using two sequential 30 second injections of 3M MgCl at 10 μl/min. Data was fit to a 1:1 binding model (Table 15).

[5] = target: T4, recombinant human Tau monomer, 2N4R …; experiment: SPR, captured IgG, Tau monomer analyte, 1:1 model; fit-quality column: Yes
How it was run: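 First, IgGs from 1 mL culture were protein A purified and set to 0.1 mg/ml. Next, aliquots were stored at ~4° C. or stressed at 40° C. for two weeks. Then each prep was captured and probed with Tau monomer by multi-cycle SPR at 25° C., fitting a 1:1 binding model.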
Target sequence in this assay (P10636 other isoform, or with tags, fused parts or gaps limits assumed): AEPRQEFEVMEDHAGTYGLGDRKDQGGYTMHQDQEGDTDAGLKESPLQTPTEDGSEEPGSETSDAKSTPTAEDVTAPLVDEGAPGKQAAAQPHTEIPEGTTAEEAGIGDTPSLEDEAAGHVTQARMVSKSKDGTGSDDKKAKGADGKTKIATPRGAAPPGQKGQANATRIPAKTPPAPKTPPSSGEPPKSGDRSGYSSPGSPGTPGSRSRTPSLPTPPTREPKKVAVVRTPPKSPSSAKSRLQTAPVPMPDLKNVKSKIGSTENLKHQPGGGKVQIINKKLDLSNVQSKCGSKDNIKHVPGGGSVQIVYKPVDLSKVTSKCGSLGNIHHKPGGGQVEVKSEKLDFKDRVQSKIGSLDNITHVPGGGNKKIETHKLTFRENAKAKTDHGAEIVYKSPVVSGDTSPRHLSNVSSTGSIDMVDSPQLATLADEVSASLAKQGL

[6] = target: T4, recombinant human Tau monomer, 2N4R …; experiment: SPR, hIgG captured, Tau monomer analyte; mean of four
Method: Affinity was assessed at 25° C. using a Biacore T200 instrument, the GE Biacore human IgG capture kit and a CM5 Series S chip. The hIgG were diluted to 2 μg/ml in 10 mM HEPES pH7.4, 150 mM NaCl, 0.05% Tween 20 (running buffer, HBSP) and captured at a flow rate of 10 μl/min for 22 seconds. […] Between cycles the surface was regenerated using a 30 second injection of 3M Magnesium Chloride at 10 μl/min. A 1:1 binding model was fitted to the data and affinities for hu37D3-H9.v5 and hu37D3-H9.v5.3 (also referred to herein as hu37D3-H9.v5 N28D) calculated using kinetic analysis. Parameters used for the 1:1 fitting included the Instrument default of local fitting for the “RI” parameter.

[7] = target: T4, recombinant human Tau monomer, 2N4R …; experiment: SPR, hIgG captured, Tau monomer analyte; unstressed sample
Method: To assess the impact of N²⁸ deamidation on the affinity for human Tau, it was desirable to obtain two samples with widely separated N²⁸ deamidation status. Hu37D3-H9.v5 hIgG4.S228P was incubated at 40° C. for two weeks at a concentration of 1 mg/ml in Phosphate Buffered Saline, pH 7.4. Deamidation of the N²⁸G2⁹ motif was measured using LC-MS/MS. […] The stressed and unstressed antibodies were analyzed for Tau binding by surface plasmon resonance (Biacore) using the GE Biacore human IgG capture kit and a Series S CM5 chip. The hIgG were diluted to 2 μg/ml in 10 mM HEPES pH7.4, 150 mM NaCl, 0.05% Tween 20 (running buffer, HBSP) and captured at a flow rate of 10 μl/min for 15 seconds (t0 sample) or 17 seconds (t2 sample). […] Between cycles the surface was regenerated using a 30 second injection of 3M Magnesium Chloride at 10 μl/min. A 1:1 binding model was fitted to the data using instrument defaults, including local fitting of the “RI” parameter.

[8] = target: T4, recombinant human Tau monomer, 2N4R …; experiment: SPR, hIgG captured, Tau monomer analyte; stressed sample
[9] = target: T4, recombinant human Tau monomer, 2N4R …; experiment: SPR, hIgG captured, Tau monomer analyte; control sample
[10] = target: T4, recombinant human Tau monomer, 2N4R …; experiment: SPR single-cycle, Tau monomer amine-coupled, Fab analyte; Fab, not IgG; Tau monomer on the chip
Method: Human monomer Tau protein was covalently coupled to a Biacore Series S CM5 chip using the Biacore Amine Coupling Kit (GE Life Sciences), resulting in immobilization to a level of approximately 128 RU. Direct binding of 37D3-H9 in both Fab and IgG formats was monitored using the single-cycle kinetics experimental format with five association periods of 300s each and antibody concentrations of 1, 2, 4, 8 and 16 nM (IgG) or 5, 10, 20, 40 and 80 nM (Fab). Dissociation was monitored for 7200 seconds (Fab) or for 14400 seconds (IgG). A value for the dissociation rate was calculated by fitting a 1:1 binding model to the data.

Row | Binder | binding result [1] | binding result [2] | binding result [3] | Kd [4] | koff [4] | kon [4] | Kd [5] | Kd [6] | Kd [7] | Kd [8] | Kd [9] | koff [10]
1 | hu37D3-H9.v5 hIgG1 (antibody, V domains shown, human IgG1, kappa) VH: EVQLVESGGGLVQPGGSLRLSCAASGLIFRSYGMSWVRQAPGKGLEWVATINSGGTYTYYPDSVKGRFTISRDNSKNTLYLQMNSLRAEDTAVYYCANSYSGAMDYWGQGTLVTVSS VL: EDVLTQTPLSLPVTPGQPASISCRSSQSIVHSNGNTYFEWYLQKPGQSPQLLIYKVSNRFSGVPDRFSGSGSGTDFTLKISRVEAEDVGVYYCFQGSLVPWTFGQGTKVEIK | binds | binds | binds | 1 nM | 0.0008 s⁻¹ | 750000 M⁻¹ s⁻¹ | 1 nM | 1.5 nM | – | – | – | –
2 | hu37D3-H9.v5 hIgG4.S228P (antibody, V domains shown, human IgG4 S228P, kappa; the t = 2 weeks sample is partly deamidated at light chain N28) VH: EVQLVESGGGLVQPGGSLRLSCAASGLIFRSYGMSWVRQAPGKGLEWVATINSGGTYTYYPDSVKGRFTISRDNSKNTLYLQMNSLRAEDTAVYYCANSYSGAMDYWGQGTLVTVSS VL: EDVLTQTPLSLPVTPGQPASISCRSSQSIVHSNGNTYFEWYLQKPGQSPQLLIYKVSNRFSGVPDRFSGSGSGTDFTLKISRVEAEDVGVYYCFQGSLVPWTFGQGTKVEIK | – | – | – | 1.3 nM | 0.0009 s⁻¹ | 710000 M⁻¹ s⁻¹ | – | – | 0.7 nM | 1.5 nM | 1.5 nM | –
3 | 37D3-H9 Fab (Fab, V domains shown, Fab format) VH: EVQLVESGGDLAKPGGSLKLSCTASGLIFRSYGMSWVRQTPDKRLEWVATINSGGTYTYYPDSVKGRFTISRDNAKNTLYLQMSSLKSEDTAMYYCANSYSGAMDYWGQGTSVTVSS VL: DDLLTQTPLSLPVSLGDPASISCRSSQSIVHSNGNTYFEWYLQKPGQSPKLLIYKVSNRFSGVPDRFSGSGSGTDFTLKISRVEAEDLGVYYCFQGSLVPWTFGGGTKLEIK | – | – | – | – | – | – | – | – | – | – | – | 0.0005 s⁻¹
